Test results as given in patent US20230054274A1, “PEPTIDE-MHC COMPLEXES” (priority 2019, published 2023).

Molecular target: HLA-E*01:03 (Homo sapiens, UniProt P13747)
Experiment: Stability of native peptide-HLA-E complexes by loss of ILT2 binding over time (SPR)

Sequence of HLA-E*01:03 (P13747 with tags, fused parts or gaps): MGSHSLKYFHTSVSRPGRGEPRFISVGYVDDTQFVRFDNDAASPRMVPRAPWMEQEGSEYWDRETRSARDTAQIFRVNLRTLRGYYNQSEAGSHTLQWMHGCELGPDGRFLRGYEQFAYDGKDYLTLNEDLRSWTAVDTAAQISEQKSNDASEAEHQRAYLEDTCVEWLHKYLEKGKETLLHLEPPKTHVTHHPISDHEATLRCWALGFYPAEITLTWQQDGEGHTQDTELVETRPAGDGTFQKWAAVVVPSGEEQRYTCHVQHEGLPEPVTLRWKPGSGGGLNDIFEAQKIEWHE
Sequence of HLA-E*01:03 (P61769 with tags, fused parts or gaps partner): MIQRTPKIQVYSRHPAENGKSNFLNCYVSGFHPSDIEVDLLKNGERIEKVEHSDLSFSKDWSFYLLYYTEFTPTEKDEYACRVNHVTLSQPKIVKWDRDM

| T 1/2 (h) (HLA-E*01:03) (native unmodified peptide in complex with HLA-E*01:03, half-life by ILT2 binding) | Sequence | T 1/2 (h) (HLA-E*01:03) ([…], half-life by ILT2 binding) |
| --- | --- | --- |
| 3.00 h | VMAPRTLVL |  |
|  | VMAPRTLIL | 3.20 h |
|  | ILPSDAPVL [MTB peptide known to be presented by HLA-E] | 0.70 h |
|  | VMATRRNVL [MTB peptide known to be presented by HLA-E] | 0.57 h |
|  | RMYSPVSIL [HIV (Gag 275) peptide known to be presented by HLA-E] | 0.27 h |
